{"source": "paper PMC2478715", "origin": "cited, not measured here", "test_system": "HMGB1 (purified from mammalian source) (rat (liver nuclei), human (HeLa) or monkey (CV1); preparation per gel not specified)", "assay": "cited value; method not stated here", "settings": "50 mM NaCl, 25 mM Tris-HCl pH 7.5, 1 mM DTT, 1 mM EDTA, 0.1% Triton X-100, 100 ug/mL BSA, 2% glycerol, 25 uL, 20 min at 37 C; 4% PAGE in 0.5x TBE at room …"}
{"substance": "hcDNA (hemicatenated DNA loop, 120 bp fragment)", "values": [{"measurement": "Kd", "result": "< 0.15", "unit": "pM"}]}
